We go through 94 variants from the supplement of paper PMC10567573.

The chains are these.
B1: FBXO34 (parent)
chain: ASSVESTLPVLEASSWKKQVSHDF
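Further: lentivirally expressed fusions sorted by FACS into six bins by GFP to DsRed ratio, PSI derived from sequencing read proportions per bin multiplied by bin number.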

This series covers variants of B1. As to the kind of experiment: protein stability index of a GFP-peptide fusion (GPS, HEK-293T) (PSI 1-6); higher = more stable. The conditions noted are these: c terminus: a fixed tail appended.
For the variant ASSVESTLPVMEASSWKKQVSHDF, the protein stability index was determined as 2.33.

Consider ASSVESTLPVIEASSWKKQVSHDF, for which the protein stability index was determined as 2.91. The figure for ASSVESTLPVQEASSWKKQVSHDF is 2.96.

As for ASSVESTLPVCEASSWKKQVSHDF, the protein stability index was 2.85.

As for ASSVESTLPVREASSWKKQVSHDF, the protein stability index came out at 3.05. With ASSVESTLPVFEASSWKKQVSHDF the figure was 2.88; with ASSVESTLPVGEASSWKKQVSHDF, 2.01; with ASSVESTLPVVEASSWKKQVSHDF, 3.03. The figure for ASSVESTLPVTEASSWKKQVSHDF is 2.87; for ASSVESTLPVKEASSWKKQVSHDF it is 2.19; for ASSVESTLPVNEASSWKKQVSHDF it is 2.85. On to ASSVESTLPVPEASSWKKQVSHDF, for which the protein stability index came to 2.78. As to ASSVESTLPVWEASSWKKQVSHDF, the protein stability index turned out to be 2.54. ASSVESTLPVAEASSWKKQVSHDF: the protein stability index is 3.52. With ASSVESTLPVEEASSWKKQVSHDF the figure was 3.02; with ASSVESTLPVLSASSWKKQVSHDF, 2.32. As to ASSVESTLPVLNASSWKKQVSHDF, the protein stability index was 3.1. The figure for ASSVESTLPVLGASSWKKQVSHDF is 2.49; for ASSVESTLPVLLASSWKKQVSHDF it is 2.24; for ASSVESTLPVLDASSWKKQVSHDF it is 2.83. For ASSVESTLPVLTASSWKKQVSHDF, the protein stability index was 2.86. As to ASSVESTLPVLCASSWKKQVSHDF, the protein stability index turned out to be 2.54. With ASSVESTLPVLAASSWKKQVSHDF the figure was 3.02; with ASSVESTLPVLPASSWKKQVSHDF, 3.46; with ASSVESTLPVLFASSWKKQVSHDF, 2.25. The figure for ASSVESTLPVLIASSWKKQVSHDF is 2.12; for ASSVESTLPVLKASSWKKQVSHDF it is 2.36; for ASSVESTLPVLHASSWKKQVSHDF it is 2.82.

As for ASSVESTLHVLEASSWKKQVSHDF, the protein stability index stood at 1.56. With ASSVESTLEVLEASSWKKQVSHDF, the protein stability index was determined as 1.96. With ASSVESTLMVLEASSWKKQVSHDF the figure was 2.6. The figure for ASSVESTLIVLEASSWKKQVSHDF is 1.74. The figure for ASSVESTLFVLEASSWKKQVSHDF is 2.12; for ASSVESTLTVLEASSWKKQVSHDF it is 1.98. In the case of ASSVESTLKVLEASSWKKQVSHDF, the protein stability index worked out at 2.5. As to ASSVESTLLVLEASSWKKQVSHDF, the protein stability index was found to be 2.04. The figure for ASSVESTLYVLEASSWKKQVSHDF is 1.8. As for ASSVESTLWVLEASSWKKQVSHDF, the protein stability index is 2.8.

Consider ASSVESTLGVLEASSWKKQVSHDF, for which the protein stability index turned out to be 1.89. The figure for ASSVESTLVVLEASSWKKQVSHDF is 2.4; for ASSVESTLNVLEASSWKKQVSHDF it is 2.51; for ASSVESTLSVLEASSWKKQVSHDF it is 2.28. ASSVESTLDVLEASSWKKQVSHDF: the protein stability index stood at 3.03. Turning to ASSVESTLCVLEASSWKKQVSHDF, the protein stability index worked out at 3.55. As to ASSVSSTLPVLEASSWKKQVSHDF, the protein stability index is 3.21.

As to ASSVCSTLPVLEASSWKKQVSHDF, the protein stability index amounted to 2.38. The figure for ASSVASTLPVLEASSWKKQVSHDF is 2.68; for ASSVWSTLPVLEASSWKKQVSHDF it is 2.03; for ASSVFSTLPVLEASSWKKQVSHDF it is 1.77. Regarding ASSVMSTLPVLEASSWKKQVSHDF, the protein stability index was determined as 2.84. The figure for ASSVVSTLPVLEASSWKKQVSHDF is 2.9; for ASSVGSTLPVLEASSWKKQVSHDF it is 2.61; for ASSVNSTLPVLEASSWKKQVSHDF it is 2.28. With ASSVLSTLPVLEASSWKKQVSHDF the figure was 2.9; with ASSVKSTLPVLEASSWKKQVSHDF, 2.48. The figure for ASSVDSTLPVLEASSWKKQVSHDF is 3.22; for ASSVHSTLPVLEASSWKKQVSHDF it is 2.4; for ASSVYSTLPVLEASSWKKQVSHDF it is 1.9. ASSVQSTLPVLEASSWKKQVSHDF: the protein stability index worked out at 2.51. On to ASSVISTLPVLEASSWKKQVSHDF, for which the protein stability index came to 2.17. Consider ASSVESTLPGLEASSWKKQVSHDF, for which the protein stability index is 3.41. With ASSVESTLPHLEASSWKKQVSHDF the figure was 2.5. For the variant ASSVESTLPLLEASSWKKQVSHDF, the protein stability index worked out at 2.55. The figure for ASSVESTLPPLEASSWKKQVSHDF is 3.19. With ASSVESTLPMLEASSWKKQVSHDF the figure was 3.73; with ASSVESTLPWLEASSWKKQVSHDF, 2.37. The figure for ASSVESTLPCLEASSWKKQVSHDF is 2.95. In the case of ASSVESTLPYLEASSWKKQVSHDF, the protein stability index worked out at 1.76. With ASSVESTLPDLEASSWKKQVSHDF the figure was 3.25. Consider ASSVESTLPALEASSWKKQVSHDF, for which the protein stability index was 3.64. As for ASSVESTLPFLEASSWKKQVSHDF, the protein stability index came to 2.22.

As to ASSVESTLPNLEASSWKKQVSHDF, the protein stability index worked out at 1.84. In the case of ASSVESTLPKLEASSWKKQVSHDF, the protein stability index was 2.45. As to ASSVESTLPELEASSWKKQVSHDF, the protein stability index amounted to 2.83. The figure for ASSVESTLPILEASSWKKQVSHDF is 2.39. The figure for ASSVESTLPSLEASSWKKQVSHDF is 3.22. With ASSVESTLPQLEASSWKKQVSHDF the figure was 3.16; with ASSVESTLPRLEASSWKKQVSHDF, 2.3; with ASSVESTLPTLEASSWKKQVSHDF, 2.58. ASSVEMTLPVLEASSWKKQVSHDF: the protein stability index turned out to be 2.36. With ASSVEYTLPVLEASSWKKQVSHDF the figure was 2.48; with ASSVEHTLPVLEASSWKKQVSHDF, 2.42. With ASSVEWTLPVLEASSWKKQVSHDF the figure was 3.02; with ASSVELTLPVLEASSWKKQVSHDF, 3.18. With ASSVEDTLPVLEASSWKKQVSHDF the figure was 2.46; with ASSVECTLPVLEASSWKKQVSHDF, 2.56. As to ASSVENTLPVLEASSWKKQVSHDF, the protein stability index amounted to 3.83. With ASSVETTLPVLEASSWKKQVSHDF the figure was 3.06; with ASSVEKTLPVLEASSWKKQVSHDF, 2.76; with ASSVEPTLPVLEASSWKKQVSHDF, 2.96.

As to ASSVEFTLPVLEASSWKKQVSHDF, the protein stability index was determined as 1.76. With ASSVERTLPVLEASSWKKQVSHDF the figure was 2.43; with ASSVEITLPVLEASSWKKQVSHDF, 1.7; with ASSVEATLPVLEASSWKKQVSHDF, 3.41.
